Our source for the Kd values is paper PMC3228521 (Molecular bioSystems, 2011).

T1: UBZ-CN (a.a. 515~615) of S. cerevisiae Polη, GST fusion (S. cerevisiae, UniProt Q04049 515-615)
T1 sequence (looked up): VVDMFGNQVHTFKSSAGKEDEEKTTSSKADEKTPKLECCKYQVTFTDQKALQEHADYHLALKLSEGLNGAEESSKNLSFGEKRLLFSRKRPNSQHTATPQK

T2: C-term scPolη (a.a. 515~632) CC552,553AA, GST fusion (S. cerevisiae, UniProt Q04049 515-632, CC552,553AA | CC552,553AA)
T2 sequence (looked up): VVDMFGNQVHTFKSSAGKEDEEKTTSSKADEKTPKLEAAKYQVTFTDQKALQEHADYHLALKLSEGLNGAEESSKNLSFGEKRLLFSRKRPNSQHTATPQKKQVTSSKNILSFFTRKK

T3: C-term scPolη (a.a. 515~632) HH568,572AA, GST fusion (S. cerevisiae, UniProt Q04049 515-632, HH568,572AA | HH568,572AA)
T3 sequence (looked up): T2 sequence (looked up) with A38C, A39C, H54A, H58A

B1: UBZ-N (a.a. 515~580) of S. cerevisiae Polη, GST fusion (domain or fragment, UniProt Q04049 515-580, looked up)
chain: VVDMFGNQVHTFKSSAGKEDEEKTTSSKADEKTPKLECCKYQVTFTDQKALQEHADYHLALKLSEG
B2: ubiquitin (S. cerevisiae) (natural protein)
chain: not shown
B3: UBZ-C (a.a. 545~608) of S. cerevisiae Polη, GST fusion (domain or fragment, UniProt Q04049 545-608, looked up)
chain: EKTPKLECCKYQVTFTDQKALQEHADYHLALKLSEGLNGAEESSKNLSFGEKRLLFSRKRPNSQ

What all share (test): SPR
Assay [1] concerns the target B2.
The target of assay [2] is B2. The source holds these as a separate data set.
Assay [3] deals with T1, UBZ-CN (a.a. 515~615) of S. cerevisiae ….
The target in assay [4] is T2, C-term scPolη (a.a. 515~632) ….
The target in assay [5] is T3, C-term scPolη (a.a. 515~632) ….

Where a chain is given by its changes, count along the chain named. Numbers in names are those of the source. Where two headings read alike, the source gives them in different places.

Molecule B1 showed a Kd in assay [1] of 18.2 ± 2.2 µM.
EKTPKLECCKYQVTFTDQKALQEHADYHLALKLSEG (domain or fragment, UniProt Q04049 545-580, looked up) [minimal S. cerevisiae Polη UBZ domain (a.a. 545–580) with N-terminal GST tag, wild type] had a Kd in assay [2] of 14.6 ± 2.5 µM.
On the same count and under the same terms, in the case of EKTPKLECCKYQVTFTDQKALQEHAAYHLALKLSEG (domain or fragment, S. cerevisiae, UniProt Q04049 545-580, looked up) [scPolη UBZ domain (a.a. 545–580) D570A, GST fusion] it was 23.6 ± 2.4 µM; in that of EKTPKLECCKYQVTFTDQKALPEHADYHLALKLSEG (domain or fragment, S. cerevisiae, UniProt Q04049 545-580, looked up) [scPolη UBZ domain (a.a. 545–580) Q566P, GST fusion], 48.4 ± 7.2 µM.
On the same count and under the same terms, then EKTPKLEAAKYQVTFTDQKALQEHADYHLALKLSEG (domain or fragment, S. cerevisiae, UniProt Q04049 545-580, looked up) [scPolη UBZ domain (a.a. 545–580) CC552,553AA, GST fusion], with 22.3 ± 4.1 µM; and EKTPKLECCKYQVTFTDQKALQEHADYHLFLKLSEG (domain or fragment, S. cerevisiae, UniProt Q04049 545-580, looked up) [scPolη UBZ domain (a.a. 545–580) A574F, GST fusion], with 38.6 ± 8.6 µM; and EKTPKLECCKYQVTFTDQKALQEHADYHLPLKLSEG (domain or fragment, S. cerevisiae, UniProt Q04049 545-580, looked up) [scPolη UBZ domain (a.a. 545–580) A574P, GST fusion], with 55.3 ± 5.5 µM.
Still for that read-out and setting: in the case of EKTPKLECCKYQVTFTDQKALQEAADYALALKLSEG (domain or fragment, S. cerevisiae, UniProt Q04049 545-580, looked up) [scPolη UBZ domain (a.a. 545–580) HH568,572AA, GST fusion] it was 22.2 ± 4.8 µM.
On to EKTPKLECCKYQVTFTDQKALQEHPDYHLALKLSEG (domain or fragment, S. cerevisiae, UniProt Q04049 545-580, looked up) [scPolη UBZ domain (a.a. 545–580) A569P, GST fusion], for which the Kd in assay [2] came out at 43.1 ± 10.2 µM.
Regarding B2, the values for the Kd in assay [3], in assay [4] and in assay [5] were 11.1 ± 1.8 µM, 0.3 ± 0.1 µM and 0.59 ± 0.14 µM, respectively.
B3 displayed a Kd in assay [1] of 15.8 ± 3.7 µM.
